The text below walks through data of the supplement of paper PMC9170038.

For the series, the system named is MS2 coat protein. Description: apparent KD of MS2 coat protein; designed switch direction (-1 OFF switch, 1 ON switch): -1; higher = weaker reporter binding. In outline:
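Normalised cluster fluorescence was curve-fitted, and each design's median over clusters is its apparent KD. Before this, SNAP-549-labelled MS2 coat protein was titrated from 0.7 or 1.5 nM, doubling to 3 µM, over RNA switches transcribed on Illumina chips by stalled E. coli RNA polymerase. Titrations had no input, 200 uM small-molecule ligand, or an oligonucleotide input, and steps lasted 0.8–1.5 h (lowest) to 10–20 min (highest).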

The mark [1] stands for this setting: input ligand: microRNA oligo, concentration not stated.
Setting [2] is: Eterna round: R95, input ligand: microRNA oligo, concentration not stated.
Where [3] appears, read: Eterna round: R95, input ligand: FMN 200 uM.
[4] abbreviates: Eterna round: R95, input ligand: none.

“AACCUAGUCAUAGGAUAUACAGGCAAAGCCAAAGUAGAAGGAUGACACAUGAGGAUCACCCAUGUGGUCCUUGAACAAAAUAAC [Esatier] (Eterna round: R96, puzzle: Exclusion NG 1)”: the “apparent KD of MS2 coat protein” value under setting [1] is 24.1 nM.

For the sequence “AACCUGAGGCAAAGCUUUAGGUGUACAUGAGGAUCACCCAUGUAGGAUAUGGUAGGCAAAGCUUACCAGAAGGACAUGUUAAUU [Mat - Exclusion NG 3 - Mod of JL - D38] (Eterna round: R96, puzzle: Exclusion NG 3)”, the “apparent KD of MS2 coat protein” value (input ligand: FMN 200 uM) was 172 nM, the “apparent KD of MS2 coat protein” value under setting [1] was found to be 61.5 nM and the “apparent KD of MS2 coat protein” value (input ligand: none) was determined as 67 nM.

As for “AACGACUGAGGAUAUACAUGAGGAUCACCCAUGUAUUGAAAUACGUGCUUGGUCAACUGUAGAAGGCAGAAUAA [Oresza] (puzzle: Exclusion 3)”, the “apparent KD of MS2 coat protein” value under setting [2] came to 15.9 nM.

Consider “AACGUGCUGCGAGGAUAUACAUGAGGAUCACCCAUGUGGAUGUCUGAGGCAAAGCCUCAGACAAUGUAGAAGGCGCAGUACGAA [Mat - Exclusion NG 2 - Mod of JL - D57] (Eterna round: R96, puzzle: Exclusion NG 2)”, for which the “apparent KD of MS2 coat protein” value reads like this: (input ligand: FMN 200 uM) 72.5 nM; under setting [1], 18.7 nM; (input ligand: none) 19.6 nM.

As for “AACUAGUCAGGAUAUACGAACAUGUCAAAAAACAUAAAGGGACAUGAGGAUCACCCAUGUAGAAGGGACUAGCA [74%, Web mod - With 4 less G's] (Eterna round: R96, puzzle: Exclusion 2)”, the “apparent KD of MS2 coat protein” value under setting [1] was 150 nM.

As to “AACUAUUUAGGAUAUCAGGCGAACCACAUGAGGAUCACCCAUGUGGCCCGUUGUGGUCCUUGAGAAGGAAAGAGUU [EX5 B.15] (Eterna round: R97, puzzle: Exclusion 5)”, the “apparent KD of MS2 coat protein” value was determined as 53.5 nM (input ligand: FMN 200 uM) and 22.7 nM (input ligand: none).

As to “AACUGUCUAAAGGAUAUGCUGGAUUAAUAUCUGGCAGAAGGUUAGACAUGAGGAUCACCCAUGUAAAUACCACC [Omei Ex6 A10] (Eterna round: R97, puzzle: Exclusion 6)”, the “apparent KD of MS2 coat protein” value turned out to be 106 nM (input ligand: FMN 200 uM) and 19.5 nM (input ligand: none).

As for “AAGAAACAUGAGGAUCACCCAUGUGAGGAUAUAGAAAAGAAAGAAAGAAAGAAAGAAACUAGAAGGCACAAAGA [It's All Mine] (puzzle: Exclusion 1)”, the “apparent KD of MS2 coat protein” value runs as follows: under setting [3], 24.6 nM; under setting [2], 39.2 nM; under setting [4], 26.1 nM.

Turning to “AAGAAACAUGAGGAUCACCCAUGUGAGGAUAUGAAAAAUAAAAUAAAAGAAAUAAUAAUCAGAAGGCACAAAGG [Mat - Mod of Hog D8] (puzzle: Exclusion 1)”, the “apparent KD of MS2 coat protein” value was determined as 44.5 nM under setting [3], 36.1 nM under setting [2] and 30.5 nM under setting [4].

As for “AAGAAACAUGAGGAUCACCCAUGUGAGGAUAUGACAAAGAAAAGAAAAGAAAGAAGAUUCAGAAGGCACAAAGG [salish99-ex1_r3_036] (puzzle: Exclusion 1)”, the “apparent KD of MS2 coat protein” value is, setting by setting: under setting [3], 90.5 nM; under setting [2], 53.6 nM; under setting [4], 70.4 nM.

On to “AAGAAACAUGAGGAUCACCCAUGUGAGGAUAUGAGAAAGAAAAGAAAAGAAAGAAGACUCAGAAGGCACAAAGG [salish99-ex1_r3_040] (puzzle: Exclusion 1)”, for which the “apparent KD of MS2 coat protein” value by setting is: under setting [3], 152 nM; under setting [2], 54.7 nM; under setting [4], 120 nM.

For the sequence “AAGAAACAUGAGGAUCACCCAUGUGAGGAUAUGAGGAAGAAAAGAAAAGAAAGAAGAAUCAGAAGGCACAAAGG [salish99-ex1_r3_049] (puzzle: Exclusion 1)”, the “apparent KD of MS2 coat protein” value under setting [3] stood at 56.3 nM, the “apparent KD of MS2 coat protein” value under setting [2] worked out at 36.5 nM and the “apparent KD of MS2 coat protein” value under setting [4] was 43.6 nM.

With “AAGAAACAUGAGGAUCACCCAUGUGAGGAUAUGAUGAAGAAAAGAAAAGAAAGAAGAGUCAGAAGGCACAAAGG [salish99-ex1_r3_064] (puzzle: Exclusion 1)”, the “apparent KD of MS2 coat protein” value amounted to 96 nM under setting [3], 55.9 nM under setting [2] and 69.2 nM under setting [4].

As to “AAGAAACAUGAGGAUCACCCAUGUGAGGAUAUGGCCCGCCCGGCGUGAGCAAAAUAAAUCAGAAGGCACAAAGG [salish99_ex1_r4_009] (Eterna round: R97, puzzle: Exclusion 1)”, the “apparent KD of MS2 coat protein” value by setting is: (input ligand: FMN 200 uM) 41 nM; (input ligand: none) 30.6 nM.

On to “AAGAAACAUGAGGAUCACCCAUGUGAGGAUAUGGCCCGCCCGGCGUGAGCUAAAUAAAUCAGAAGGCACAAAGG [salish99_ex1_r4_010] (Eterna round: R97, puzzle: Exclusion 1)”, for which the “apparent KD of MS2 coat protein” value is, setting by setting: (input ligand: FMN 200 uM) 24.6 nM; (input ligand: none) 42.2 nM.

Take “AAGAACAGAGGAUAUCGCGGGCAGCACAUGAGGAUCACCCAUGUGAUGCUCCGCGGGCCGCGAGAAGGCUGAAAUG [Dizabe] (puzzle: Exclusion 5)”: the “apparent KD of MS2 coat protein” value reads like this: under setting [3], 14.2 nM; under setting [2], 9.5 nM; under setting [4], 12.9 nM.

Take “AAGAAGAAGUAAGGAUAUGAAGAUCUGGUGGUGACAUGAGGAUCACCCAUGUGAAAACGAUAAGAUCAGAAGGUAUAAGAAGAA [AK ExNG2-3.2] (Eterna round: R96, puzzle: Exclusion NG 2)”: the “apparent KD of MS2 coat protein” value was 86.8 nM (input ligand: FMN 200 uM), 48.4 nM under setting [1] and 85.8 nM (input ligand: none).

As to “AAGAAGCGAGGAUAUACAGGCGGCGACAUGAGGAUCACCCAUGUGGUGGCCCACGCCGUGGUAGAAGGCGUUAAAG [Ordiceinri] (Eterna round: R97, puzzle: Exclusion 5)”, the “apparent KD of MS2 coat protein” value runs as follows: (input ligand: FMN 200 uM) 228 nM; (input ligand: none) 245 nM.

On to “AAGACACAUGAGGAUCACCCAUGUGAGGAUAUGCGAUGCUAAGCGUAAGCUUAGUAUCGCAGAAGGCACAAAGG [Salishxclusion 4 - Jieux - Exclusion 1] (Eterna round: R97, puzzle: Exclusion 1)”, for which the “apparent KD of MS2 coat protein” value reads like this: (input ligand: FMN 200 uM) 76.9 nM; (input ligand: none) 64 nM.

On to “AAGACACAUGAGGAUCACCCAUGUGAGGAUAUUCGAUGCUGAGCGUAAGCUUAGUAUCGGAGAAGGCACAAAGG [Salishxclusion 7 - Jieux - Exclusion 1] (Eterna round: R97, puzzle: Exclusion 1)”, for which the “apparent KD of MS2 coat protein” value (input ligand: FMN 200 uM) was 119 nM and the “apparent KD of MS2 coat protein” value (input ligand: none) turned out to be 39.8 nM.

“AAGAGCGUAGGAUAUACAUGAGGAUCACCCAUGUGAGGAGGGAAAAGGAGGUGUGGAAGUAGAAGGACGGAGUG [JR_Exclu3_Sub080] (puzzle: Exclusion 3)”: the “apparent KD of MS2 coat protein” value is, setting by setting: under setting [3], 31.8 nM; under setting [2], 30.9 nM; under setting [4], 36.5 nM.

Regarding “AAGAGGAUCAAAGGAUAUGGAGCUGAAACGGCGCUAGAAGGUUGUCCAGUGUAACAUGAGGAUCACCCAUGUAGGGACCUCUAA [AK ExNG1-V2-3] (Eterna round: R96, puzzle: Exclusion NG 1)”, the “apparent KD of MS2 coat protein” value is 100 nM (input ligand: FMN 200 uM), 57.5 nM under setting [1] and 42.9 nM (input ligand: none).

For “AAGAGGCGGACAGGAUAUGGGAAAUUGUAAAGACCAGAAGGGUCGGCGAAAAUACAUGAGGAUCACCCAUGUGAAUCAUGACCA [AK ExNG1-7] (Eterna round: R96, puzzle: Exclusion NG 1)”, the “apparent KD of MS2 coat protein” value (input ligand: FMN 200 uM) was 89.1 nM, the “apparent KD of MS2 coat protein” value under setting [1] was determined as 31.6 nM and the “apparent KD of MS2 coat protein” value (input ligand: none) stood at 42.5 nM.
